Assay results reported in patent US20180327500A1 (SYMPHOGEN A S, published 2018).

T1: Mouse blade 2
T1 construct: human/mouse chimera on transfected HEK293 cells; also called Mouse blade 2-IPT4
T1 MET ECD-SV5-GPI fusion: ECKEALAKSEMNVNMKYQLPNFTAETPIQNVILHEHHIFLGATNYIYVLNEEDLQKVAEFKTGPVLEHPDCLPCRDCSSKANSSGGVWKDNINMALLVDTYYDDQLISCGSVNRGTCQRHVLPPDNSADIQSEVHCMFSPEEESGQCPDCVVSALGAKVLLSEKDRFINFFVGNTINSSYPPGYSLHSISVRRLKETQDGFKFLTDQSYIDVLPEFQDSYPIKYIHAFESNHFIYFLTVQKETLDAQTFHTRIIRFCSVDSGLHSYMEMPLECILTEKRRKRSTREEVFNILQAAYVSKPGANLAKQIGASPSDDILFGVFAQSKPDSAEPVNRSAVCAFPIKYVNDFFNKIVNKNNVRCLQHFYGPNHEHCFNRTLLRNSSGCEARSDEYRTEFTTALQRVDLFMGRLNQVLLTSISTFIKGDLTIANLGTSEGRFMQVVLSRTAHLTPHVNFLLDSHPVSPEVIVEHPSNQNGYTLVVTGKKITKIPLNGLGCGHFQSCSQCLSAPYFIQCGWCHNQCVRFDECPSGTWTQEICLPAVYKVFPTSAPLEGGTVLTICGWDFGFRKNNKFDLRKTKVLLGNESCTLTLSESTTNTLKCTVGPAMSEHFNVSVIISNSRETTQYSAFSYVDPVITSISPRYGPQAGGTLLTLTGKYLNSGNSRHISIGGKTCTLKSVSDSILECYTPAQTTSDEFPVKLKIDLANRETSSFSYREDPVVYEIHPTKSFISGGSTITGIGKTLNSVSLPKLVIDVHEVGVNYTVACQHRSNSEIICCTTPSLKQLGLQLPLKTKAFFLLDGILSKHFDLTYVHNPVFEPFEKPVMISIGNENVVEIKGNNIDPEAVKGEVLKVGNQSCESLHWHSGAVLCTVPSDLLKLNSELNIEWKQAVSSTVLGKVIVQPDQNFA

T2: LS5
T2 construct: human/mouse chimera on transfected HEK293 cells; also called AA 25-473
T2 MET ECD-SV5-GPI fusion: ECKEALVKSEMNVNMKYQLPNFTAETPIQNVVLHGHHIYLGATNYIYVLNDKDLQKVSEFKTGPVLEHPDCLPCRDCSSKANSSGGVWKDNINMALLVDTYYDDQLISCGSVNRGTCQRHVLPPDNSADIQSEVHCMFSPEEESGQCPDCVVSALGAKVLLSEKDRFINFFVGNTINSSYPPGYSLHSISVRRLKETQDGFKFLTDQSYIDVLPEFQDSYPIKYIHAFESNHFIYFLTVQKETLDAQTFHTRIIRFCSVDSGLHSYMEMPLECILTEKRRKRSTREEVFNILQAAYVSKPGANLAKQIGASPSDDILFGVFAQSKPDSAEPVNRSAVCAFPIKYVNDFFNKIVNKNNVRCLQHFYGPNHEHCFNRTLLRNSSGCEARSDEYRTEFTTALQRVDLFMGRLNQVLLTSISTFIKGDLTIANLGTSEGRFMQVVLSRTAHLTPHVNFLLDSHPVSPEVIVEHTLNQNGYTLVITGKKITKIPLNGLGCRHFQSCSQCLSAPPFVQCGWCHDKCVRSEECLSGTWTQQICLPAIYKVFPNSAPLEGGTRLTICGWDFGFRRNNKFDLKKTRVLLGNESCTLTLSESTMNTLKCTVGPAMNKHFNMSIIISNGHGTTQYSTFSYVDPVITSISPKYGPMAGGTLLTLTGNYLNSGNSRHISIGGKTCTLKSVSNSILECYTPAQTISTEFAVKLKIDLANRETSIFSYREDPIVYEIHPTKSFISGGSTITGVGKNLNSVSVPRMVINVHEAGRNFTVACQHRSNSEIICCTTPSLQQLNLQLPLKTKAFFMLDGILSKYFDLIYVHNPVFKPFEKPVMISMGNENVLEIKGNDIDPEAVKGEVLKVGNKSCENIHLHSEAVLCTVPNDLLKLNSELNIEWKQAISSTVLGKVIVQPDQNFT

B1: humanized antibody 9338 (antibody, human IgG1, kappa, V domains shown)
VH: QVQLVQSGAEVKKPGSSVKVSCKASGYTFTSYWMHWVRQAPGQGLEWMGYINPSSGHIENNQKFKDRVTITADKSTSTAYMELSSLRSEDTAVYYCARGRFAYWGQGTLVTVSS
VL: EIVLTQSPATLSLSPGERATLSCSASSSVSSGYLYWYQQKPGQAPRLLIYSTSNLASGIPARFSGSGSGTDFTLTISSLEPEDFAVYYCHQWSSYPFTFGSGTKLEIKR
notes: also called Hu9338; hu9338
B2: humanized antibody 9006 (antibody, human IgG1, kappa, V domains shown)
VH: QVQLVQSGSELKKPGASVKVSCKASGYTFTNFRMNWVKQAPGQGLKWMGWINTYTGEPTYVDDLKGRFVFSLDTSVSTAYLQISSLKAEDTAVYYCARKGIARAMDYWGQGTTVTVSS
VL: DIVMTQSPDSLAVSLGERATINCKSSQSLLDSGNQKNYLAWYQQKPGQPPKLLIFGASTRESGVPDRFSGSGSGTDFTLTISSLQAEDVAVYYCQNDHSYPYTFGQGTKLEIKR
notes: also called Hu9006; hu9006

What was measured:
Mouse blade 2 = biological target: T1, Mouse blade 2; assay: flow cytometry on transfected HEK293 cells;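 also: antibodies applied at 50 µg/ml, binding called specific when fluorescence exceeds the mean signal on a negative control chicken or mouse MET construct plus four SD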
Experimental: (§1) Cut-off values defined as the average fluorescence signal of all antibodies tested at 50 μg/ml to the negative control chicken or mouse MET construct+four standard deviations were employed to discriminate background binding from specific binding for the domain exchange or blade exchange constructs.

LS5 = biological target: T2, LS5; assay: flow cytometry on transfected HEK293 cells;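 also: antibodies applied at 50 µg/ml, binding called specific when fluorescence exceeds the mean signal on a negative control chicken or mouse MET construct plus four SD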
Experimental: as §1

[1] = biological target: T3, His tagged human MET ECD (Sinobiological) (human, UniProt P08581 25-932); assay: SPR (Bio-Rad XPR-36); antibody captured on anti-human IgG Fc surface, MET ECD 25 to 1.56 nM, 1:1 Langmuir fit
T3 construct: Bought monovalent antigen; also called human MET antigen; not shown: His tag

[2] = biological target: T3, His tagged human MET ECD …; assay: BLI (Octet QK384); antibody captured on anti-human Fc sensors, monovalent MET ECD in solution, 1:1 Langmuir fit
Experimental: His tagged human or cynomolgus MET ECD antigens were purchased from Sinobiological, China. […] Measurements were conducted with a plate rotation speed of 1000 rpm and sensors were regenerated and reused by brief 5 second alternations between exposure to 10 mM Glycine:HCl buffer (pH 1.5) or PBS buffer containing 1% BSA and 0.001% Tween 20 three times. For the Surface Plasmon Resonance experiments conducted on the Bio-Rad XPR-36 instrument, anti-MET antibodies were adjusted to a concentration of 0.25-0.5 μg/ml and captured on anti-human IgG Fc surfaces generated by immobilizing a monoclonal anti-human Fc antibody (Biacore, Denmark). […] The recorded binding responses were fitted to a simple Langmuir 1:1 binding model for calculation of the on-rate (kon or ka), off-rate (koff or kd) and affinity (KD) constants using double referencing.

Binder | binding result (Mouse blade 2) | binding result (LS5) | Kd [1] | koff [1] | kon [1] | Kd [2] | koff [2] | kon [2]
B1 | no binding (tested: 50 µg/ml) | no binding (tested: 50 µg/ml) |  |  |  |  |  | 
B2 | no binding (tested: 50 µg/ml) | no binding (tested: 50 µg/ml) | 0.055 nM | 1.1e-05 s⁻¹ | 190000 M⁻¹ s⁻¹ | 1.2 nM | 7.6e-05 s⁻¹ | 62000 M⁻¹ s⁻¹
